# In KR20210143097A (dated 2021):
# T1: CD22 on B-cell lymphoma U2932 cells (UniProt P20273 20-847, limits assumed)
# T1 construct: whole, on cells; Endogenous CD22 on the U2932 cell line; also called CD22를 발현하는 비세포림프종 U2932; CD22를 발현하는 U2932 세포
# T1 sequence (looked up): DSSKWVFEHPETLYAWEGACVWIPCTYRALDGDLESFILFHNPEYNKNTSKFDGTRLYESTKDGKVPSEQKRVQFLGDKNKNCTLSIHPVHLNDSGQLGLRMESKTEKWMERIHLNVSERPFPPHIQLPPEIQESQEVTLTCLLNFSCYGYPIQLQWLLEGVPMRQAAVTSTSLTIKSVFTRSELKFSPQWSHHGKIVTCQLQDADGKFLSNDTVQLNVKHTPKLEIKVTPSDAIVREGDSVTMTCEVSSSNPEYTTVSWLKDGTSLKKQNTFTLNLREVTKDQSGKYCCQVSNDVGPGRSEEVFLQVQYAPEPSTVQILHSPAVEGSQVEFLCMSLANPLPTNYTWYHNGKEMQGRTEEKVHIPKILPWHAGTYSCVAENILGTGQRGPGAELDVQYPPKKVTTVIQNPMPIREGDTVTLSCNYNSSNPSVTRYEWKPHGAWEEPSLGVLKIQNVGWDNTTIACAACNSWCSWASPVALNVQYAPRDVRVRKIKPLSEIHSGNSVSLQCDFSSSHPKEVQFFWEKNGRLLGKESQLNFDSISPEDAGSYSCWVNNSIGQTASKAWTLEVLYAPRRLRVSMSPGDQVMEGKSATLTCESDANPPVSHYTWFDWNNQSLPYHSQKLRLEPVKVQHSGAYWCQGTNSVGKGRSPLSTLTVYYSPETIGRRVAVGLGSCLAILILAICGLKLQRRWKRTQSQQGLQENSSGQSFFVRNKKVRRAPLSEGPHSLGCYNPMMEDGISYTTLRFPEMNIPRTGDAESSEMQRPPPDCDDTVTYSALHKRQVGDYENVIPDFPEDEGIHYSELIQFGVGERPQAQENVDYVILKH
# B1: 7B5 항체 (antibody, V domains shown)
# VH: EVQLEESGPGLVAPSQSLSITCTVSGFSLTRYDISWIRQPPGKGLEWLGVMWTGGGTNYNSAFMSRLSISRDNSKSQVFLKMNSLQTDDTAIYYCVRSYYGSAMDYWGQGTSVTVSS
# VL: DIVMTQSSSYLSVSLGGRVTITCKASDHINNWLAWYQQKPGNAPRLLISGATSLETGVPSRFSGSGSGKDYTLSITSLQTEDVATYYCQQHWSTPFTFGSGTKLEIK
# notes: Antibody from a mouse hybridoma, detected with an anti-mouse IgG secondary antibody
# B2: 3F11 항체 (antibody, V domains shown)
# VH: EVKLVESGGGLVQPGGSMKLSCVASGFTFSNYWMNWVRQSPEKGLEWVAEIRLKSNNYATHYAESVKGRFTISRDDSKSSVYLQMNNLRAEDTGIYYCTSIYYYGRDYAMDYWGQGTSVTVSS
# VL: DIVMTQSPAIMSASLGERVTMTCTASSSVSSSYLHWYQQKPGSSPKLWIYSTSNLASGVPARFSGSGSGTSYSLTISSMEAEDAATYYCHQYHRSPYTFGGGTKLEIK
# notes: as for B1
# Assays:
# [1] = molecular target: CD22-His tag (CD22 extracellular domain; ACRObiosystems Inc.) (UniProt P20273); assay: ELISA, CD22-His tag coated at 100 ng/well, primary antibody 0.4 ㎍/㎖, absorbance at 450 nm
# [2] = molecular target: T1, CD22 on B-cell lymphoma U2932 cells; assay: flow cytometry on U2932 cells, 1 ㎍ antibody per 1x10^6 cells, PE anti-mouse IgG secondary
Binder,OD450 측정값 [1],binding result [2]
B1,2.66,binds
B2,1.86,binds
